From PMC4297941 (Redox Biology, 2014)
Positions count from the first letter of the chain named. Numbers in names are those of the source.

B1: wild type human endothelial nitric oxide synthase (eNOS), histidine tagged, recombinant, P29474 1-1203 (enzyme)
chain: MGNLKSVAQEPGPPCGLGLGLGLGLCGKQGPATPAPEPSRAPASLLPPAPEHSPPSSPLTQPPEGPKFPRVKNWEVGSITYDTLSAQAQQDGPCTPRRCLGSLVFPRKLQGRPSPGPPAPEQLLSQARDFINQYYSSIKRSGSQAHEQRLQEVEAEVAATGTYQLRESELVFGAKQAWRNAPRCVGRIQWGKLQVFDARDCRSAQEMFTYICNHIKYATNRGNLRSAITVFPQRCPGRGDFRIWNSQLVRYAGYRQQDGSVRGDPANVEITELCIQHGWTPGNGRFDVLPLLLQAPDDPPELFLLPPELVLEVPLEHPTLEWFAALGLRWYALPAVSNMLLEIGGLEFPAAPFSGWYMSTEIGTRNLCDPHRYNILEDVAVCMDLDTRTTSSLWKDKAAVEINVAVLHSYQLAKVTIVDHHAATASFMKHLENEQKARGGCPADWAWIVPPISGSLTPVFHQEMVNYFLSPAFRYQPDPWKGSAAKGTGITRKKTFKEVANAVKISASLMGTVMAKRVKATILYGSETGRAQSYAQQLGRLFRKAFDPRVLCMDEYDVVSLEHETLVLVVTSTFGNGDPPENGESFAAALMEMSGPYNSSPRPEQHKSYKIRFNSISCSDPLVSSWRRKRKESSNTDSAGALGTLRFCVFGLGSRAYPHFCAFARAVDTRLEELGGERLLQLGQGDELCGQEEAFRGWAQAAFQAACETFCVGEDAKAAARDIFSPKRSWKRQRYRLSAQAEGLQLLPGLIHVHRRKMFQATIRSVENLQSSKSTRATILVRLDTGGQEGLQYQPGDHIGVCPPNRPGLVEALLSRVEDPPAPTEPVAVEQLEKGSPGGPPPGWVRDPRLPPCTLRQALTFFLDITSPPSPQLLRLLSTLAEEPREQQELEALSQDPRRYEEWKWFRCPTLLEVLEQFPSVALPAPLLLTQLPLLQPRYYSVSSAPSTHPGEIHLTVAVLAYRTQDGLGPLHYGVCSTWLSQLKPGDPVPCFIRGAPSFRLPPDPSLPCILVGPGTGIAPFRGFWQERLHDIESKGLQPTPMTLVFGCRCSQLDHLYRDEVQNAQQRGVFGRVLTAFSREPDNPKTYVQDILRTELAAEVHRVLCLERGHMFVCGDVTMATNVLQTVQRILATEGDMELDEAGDVIGVLRDQQRYHEDIFGLTLRTQEVTSRIRTQSFSLQERQLRGAVPWAFDPPGSDTNSP
B2: C94R/C99R eNOS mutant, histidine tagged, recombinant (enzyme, human, UniProt P29474 1-1203, looked up)
chain: B1 chain with C94R, C99R

Key:
[1] = target: T1, wild type human endothelial nitric oxide synthase (eNOS), histidine tagged, recombinant (human), P29474; test: SEC; conditions: remark: other sources report otherwise
T1 chain: B1 chain

[2] = target: the molecule itself; test: SEC

Row | Binder | stoichiometry N [1] | stoichiometry N [2]
1 | B1 | 2 | 
2 | B2 |  | 2
